Target: MYC(303–351) (human)
Test: NMR; printed fit value 1205 uM in parentheses

B1: MYC(1–88) (domain or fragment)
chain: MPLNVSFTNRNYDLDYDSVQPYFYCDEEENFYQQQQQSELQPPAPSEDIWKKFELLPTPPLSPSRRSGLCSPSYVAVTPFSLRGDNDG
Kd: > 1000 µM

From doi:10.1101/2023.06.21.545551 (2023)
